Results reported in US7008623 (GlaxoSmithKline, dated 2006).

Assays:
soluble CD23 (sCD23) [1] = molecular target: T1, soluble CD23 (sCD23) (human, UniProt P06734 150-321, limits assumed); experiment: ELISA, sCD23 coated on plate, antibody concentration for half-maximal binding (log-logit fit)
T1 sequence (looked up): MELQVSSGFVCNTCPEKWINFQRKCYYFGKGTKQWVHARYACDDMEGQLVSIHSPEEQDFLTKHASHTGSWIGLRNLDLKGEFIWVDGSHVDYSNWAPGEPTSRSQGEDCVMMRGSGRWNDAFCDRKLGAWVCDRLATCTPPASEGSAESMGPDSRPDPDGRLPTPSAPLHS
Method: (§1) The chimaeric antibody bound sCD23 in an ELISA assay. For the ELISA assay to determine sCD23 binding, EIA/RIA plates (Costar) were coated with 100 µl/well of 2 µg/ml sCD23 in 35 mM NaHCO_3, 15 mM Na_2CO_3, pH 9.3 overnight at 4° C. Plates were washed three times with 150 mM NaCl, 50 mM Trizma base, 0.1% (v/v) Tween-20, pH 7.4 (TBS/Tween), blocked for 1–2 hours at 22° C. with 100 µl/well of 2% bovine serum albumin in TBS/Tween, and washed three times with TBS/Tween.
(§2) The concentration of chimeric and humanised anti-CD23 antibody required for half-maximal binding to sCD23 was assayed using the sCD23 ELISA already described. Absorbance at 405 nm was plotted versus a range of concentrations of antibody to generate a sigmoidal curve with a "goodness of fit" or correlation coefficient of 1. The absorbance was read using a Molecular Devices plate reader (Menlo Park, Calif., USA) and Softmax (Molecular Devices Corp) software to calculate best fit by a log-logit algorithm then display the curve, equation parameters and correlation coefficient. A discussion of curve fitting appears in "Data Analysis and Quality Control of Assays: A Practical Primer", by R P Channing Rogers in Practical Immuno Assay, editor Wilfrid R Butt; published by Marcel Dekker, Inc., New York 1984. […] The value for x in ng/ml was calculated for the following equation: […]

soluble CD23 (sCD23) [2] = molecular target: T1, soluble CD23 (sCD23); experiment: ELISA, plate coated with sCD23, OD against antibody concentration
Method: as §1, §2

[3] = molecular target: T2, purified recombinant CD23 (human, UniProt P06734 150-321, limits assumed); experiment: Biacore SPR, recombinant CD23 immobilised on CM5; affinity (association) constant
T2 construct: also called CD23 antigen; immobilised CD23
T2 sequence (looked up): T1 sequence (looked up)
Method: (§3) The association rate, dissociation rate and the dissociation rate constant for the binding of humanised anti-CD23 to the CD23 antigen was evaluated on the Biacore Biosensor. Briefly, purified recombinant CD23 was immobilised onto a CM5 sensor surface. Carboxyl groups on the dextran surface were activated by 1-ethyl-3(3-dimethylaminopropyl) carbidimide (EDCO/N-hydroxysuccimimide (NHS). Following activation, recombinant CD23 was passed over the surface to initiate immobilisation. Ethanolamine was then added to quench residual active groups. Humanised anti-CD23 diluted in HBS buffer was passed over the sensor surface. Binding of anti-CD23 to immobilised CD23 was monitored in real time for estimation of the association rate (M^-1 seq^-1). Dissociation of the CD23 and the anti-CD23 complex in buffer was also monitored for estimation of the dissociation rate (sec^-1). The dissociation constant (nM) was calculated from the dissociation and association rate. […] The affinity constant was determined to be approximately 9 ×10^10 Ka mol^-1.

[4] = molecular target: T2, purified recombinant CD23; experiment: Biacore SPR, recombinant CD23 immobilised on CM5, antibody in solution; lower end of the range over 6 batches
Method: as §3

[5] = molecular target: T2, purified recombinant CD23; experiment: Biacore SPR, recombinant CD23 immobilised on CM5, antibody in solution; upper end of the range over 6 batches
Method: as §3

[6] = molecular target: T2, purified recombinant CD23; experiment: Biacore SPR, recombinant CD23 immobilised on CM5, calculated from the rates; lower end of the range over 6 batches
Method: as §3

B1: chimaeric anti-CD23 antibody (murine C11 variable regions, human gamma 1 and human kappa constant regions) (antibody, human IgG1, V domains shown)
VH: EVKLEESGGGLVQPGGSMKLSCVASGFTFSGYWMSWVRQSPEKGLEWVAEIRLKSDNYATHYAESVKGKFTISRDDSKSRLYLQMNSLRAEDSGVYYCTDFIDWGQGTL
VL: DIVITQDELSNPVTSGESVSISCRSSKSLLYKDGKTYLNWFLQRPGQSPQLLMYLMSTRASGVSDRFSGSGSGTDFTLEISRVKAEDVGVYYCQQLVEYPFTFGSGTKLEIKR
notes: The VH is fused to the human IgG1 (gamma 1) constant region of Reichmann et al 1988 and the VL to the human kappa constant region of Reichmann et al 1988; It was transiently expressed in COS cells and tested as supernatant; The variable regions were amplified with signal-peptide primers, so the entries may include a leader, and no cleavage site is stated; also called chimeric CD23; chimaeric CD23 …
For B1, the EC50 (soluble CD23 (sCD23) [1]) was 0.0163 µg/mL and the “EC50 (read off the curve)” value (soluble CD23 (sCD23) [2]) was about 0.06 µg/mL.

B2: humanised anti-CD23 antibody (IgG1 with mutations 248 Leu to Ala and 250 Gly to Ala, human kappa) (antibody, V domains shown)
VH: EVQLVESGGGLVKPGGSLRLSCAASGFTFSGYWMSWVRQAPGKGLEWVAEIRLKSDNYATHYAESVKGKFTISRDDSKSRLYLQMNSLKTEDTAVYYCTDFIDWGQGTLVTVSS
VL: DIVMTQSPLSLPVTPGEPASISCRSSKSLLYKDGKTYLNWYLQKPGQSPQLLIYLMSTRASGVPDRFSGSGSGTDFTLKISRVEAEDVGVYYCQQLVEYPFTFGQGTKVEIKR
notes: The light chain constant region is human kappa; also called humanised CD23 IgG1m
For B2, the EC50 (soluble CD23 (sCD23) [1]) was 0.015 µg/mL, the Ka [3] was about 9e+10 M⁻¹ and the koff [4] was 1e-05 s⁻¹. It also gave a kon [4] of 1.5e+06 to 1.85e+06 M⁻¹ s⁻¹, a koff [5] of 2e-05 s⁻¹ and a Kd [6] of 0.008 to 0.012 nM. The “EC50 (read off the curve)” value (soluble CD23 (sCD23) [2]) was about 0.03 µg/mL.
